By EC50 is commonly meant the concentration at which the effect is half-maximal. A low value points to higher potency in that assay. As a reminder, the Kd is the equilibrium constant for the complex coming apart. By koff is commonly meant a measure of how fast the partners let go of each other. Usually kon stands for the rate constant with which the complex forms. Read a low kon as slow association.

Here are results for three molecules from patent US9988424 (DUKE UNIVERSITY, dated 2018).

The target in one test is T1, AE.A244 gD+ gp120 N160K (HIV-1).
T1 construct: domain: gp120
As to the kind of experiment: ELISA. In general terms: ELISA stands for enzyme-linked immunosorbent assay.

A further test deals with T2, G.con 140CF.
T2 construct: also called G.con gp140CF; G.con.env03 gp140CF
As to the kind of experiment: ELISA OD405nm, bar chart, antibody concentration not given.

A further test has as its target T3, Con 6 120.
T3 construct: also called Con 6 gp120
The description is as above.

Another test deals with T4, B.con env03 140CF.
T4 construct: also called B.con gp140CF
The description is as above.

The next test concerns the target B.63521_V1V2 Tags. The description is as above.
The target of the next test is T5, AE.con env03 40CF.
T5 construct: also called AE.con gp140CF; AE.con.env03 gp140CF
The test is described as above.

For a further test, the target named is T6, A.9004SS V1V2 Tags.
T6 V1V2 tags construct: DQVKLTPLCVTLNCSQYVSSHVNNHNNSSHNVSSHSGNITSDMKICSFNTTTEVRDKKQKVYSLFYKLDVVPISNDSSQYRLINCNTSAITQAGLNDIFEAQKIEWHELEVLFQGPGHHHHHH
Described as above.

The target of another test is B.040 gp140C. The description is as above.
For another test, the target named is C.CAP206 gp140CF.12 (HIV-1). The description is as above.
Another test deals with T7, gp70 B.CaseA2 V1/V2 (HIV-1 V1V2 on murine leukemia virus gp70).
T7 construct: also called B.gp70CaseA2 V1/V2; gp70 B.CaseAV1V2
T7 chain: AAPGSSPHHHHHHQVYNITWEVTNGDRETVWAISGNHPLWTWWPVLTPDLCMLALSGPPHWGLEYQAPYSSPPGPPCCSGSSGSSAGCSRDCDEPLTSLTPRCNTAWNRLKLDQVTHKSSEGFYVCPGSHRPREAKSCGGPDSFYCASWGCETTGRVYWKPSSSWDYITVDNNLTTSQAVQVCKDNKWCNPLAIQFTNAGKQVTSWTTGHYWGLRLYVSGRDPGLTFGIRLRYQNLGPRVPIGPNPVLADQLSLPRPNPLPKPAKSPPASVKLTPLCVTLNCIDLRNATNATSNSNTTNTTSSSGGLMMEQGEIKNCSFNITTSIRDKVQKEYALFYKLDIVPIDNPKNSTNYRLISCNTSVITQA
Described as above.

The target in another test is A.Q23 V1V2 tags (HIV-1). The test is described as above.
For the next test, the target named is T8, AE.97CNG2XF gp140CF (HIV-1).
T8 construct: also called E.97CNGX2F gp140CF
Described as above.

A further test has as its target B.9021 gp140C (HIV-1). Described as above.
The next test has as its target AE.A244 V1V2 Tags (HIV-1).

B1: CH59 (antibody, V domains shown)
VH: EVQLVESGGGLVQPGRSLRLSCAASGFTFDDGAMHWVRQAPGKGLEWVSGISWNSNIIAYADSVKGRFTISRDNAKNSLYLEMNSLRVEDTALYYCAKDSPRGELPLNYWGQGTLVTVSS
VL: SYELTQPPSVSVSPGQTARITCSGDALPKNYAYWYQQKSGQAPVLVIYEDSKRPSGIPERFSGSSSGTMATLTISGAQVEDEADYYCYSTDSSGNHRVFGGGTKLTVL
notes: also called mAb CH59
As for B1, the EC50 with AE.A244 gD+ gp120 N160K is 0.03 nM.

B2: CH59 reverted unmutated ancestor antibody (antibody, V domains shown)
VH: EVQLVESGGGLVQPGRSLRLSCAASGFTFDDYAMHWVRQAPGKGLEWVSGISWNSGSIGYADSVKGRFTISRDNAKNSLYLQMNSLRAEDTALYYCAKDSPRGELPFDYWGQGTLVTVSS
VL: SYELTQPPSVSVSPGQTARITCSGDALPKKYAYWYQQKSGQAPVLVIYEDSKRPSGIPERFSGSSSGTMATLTISGAQVEDEADYYCYSTDSSGNHRVFGGGTKLTVL
notes: also called CH59 RUA; CH59_RUA
Turning to B2, the binding result in the test with G.con 140CF, in the test with Con 6 120, in the test with B.con env03 140CF, with B.63521_V1V2 Tags, in the test with AE.con env03 40CF and with A.9004SS V1V2 Tags was “no binding (tested: not given)” each time. For the same molecule, the binding result with B.040 gp140C, with C.CAP206 gp140CF.12, with gp70 B.CaseA2 V1/V2, with A.Q23 V1V2 tags, with AE.97CNG2XF gp140CF and in the test with B.9021 gp140C was “no binding (tested: not given)” throughout.

B3: 697D (antibody, V domains shown)
VH: QVQLVQSGAEVKKPGSSVKVSCKASGGNFNTYTISWVRQAPGQGLEWMGRIIPIFGIVNPAQKFPGRVTINVDKSTNTAYMELSSLRSEDTAVYYCATSGVGLHFGYFDYWGQGTQVTVSS
VL: QSVLTQPPSVSGAPGQRVTISCTGSSSNIGAHYDVHWYQQLPGTAPKLLIYGNSNRPSGVPDRFSGSKSGTSASLAITGLQAEDEADYYCQSYDSSLSGYVFGTGTKVTVL
notes: also called mAb 697D; V2 conformational mAb 697D
In the test with AE.A244 V1V2 Tags, B3 registered a Kd of 117 nM, a koff of 0.0024 s⁻¹ and a kon of 20000 M⁻¹ s⁻¹.
